Values quoted from earlier work, collected in patent US20220023273A1, “METHODS FOR TREATING SYMPTOMS AND DISORDERS ASSOCIATED WITH LYSOSOMAL STORAGE DISEASES” (GENZYME CORPORATION, priority 2019, published 2022).

Tested on: plasma GL-3
Conditions: after 156 weeks; matched historical phase 3 trial patients treated with agalsidase beta; cited from earlier work

B1: agalsidase beta: semisynthetic enzyme agalsidase beta (alpha-galactosidase), enzyme replacement therapy for Fabry disease (protein, UniProt P06280 32-429, looked up)
Alpha-galactosidase A: LDNGLARTPTMGWLHWERFMCNLDCQEEPDSCISEKLFMEMAELMVSEGWKDAGYEYLCIDDCWMAPQRDSEGRLQADPQRFPHGIRQLANYVHSKGLKLGIYADVGNKTCAGFPGSFGYYDIDAQTFADWGVDLLKFDGCYCDSLENLADGYKHMSLALNRTGRSIVYSCEWPLYMWPFQKPNYTEIRQYCNHWRNFADIDDSWKSIKSILDWTSFNQERIVDVAGPGGWNDPDMLVIGNFGLSWNQQVTQMALWAIMAAPLFMSNDLRHISPQAKALLQDKDVIAINQDPLGKQGYQLRQGDNFEVWERPLSGLAWAVAMINRQEIGGPRSYTIAVASLGKGVACNPACFITQLLPVKRKLGFYEWTSRLRSHINPTGTVLLQLENTMQMSLKDLL
In the case of B1, the “Plasma GL-3 levels” value is given as 4.44 µg/mL.
